Reference: US20110118447A1

B1: C5A (XPA23) VL N30E (antibody, V domains shown)
VH: EVQLLESGGGLVQPGGSLRLSCAASGFTFSKYFMFWVRQAPGKGLEWVSVISPSGGMTRYADSVKGRFTISRDNSKNTLYLQMNSLRAEDTAVYYCARVGYGGNSDYWGQGTLVTVSS
VL: DIQMTQSPSSVSASVGDRLTIICRASQDIERWLAWYQQTPGNAPKLLIHSATSLQSGVPSRFSGSGSGTDFTLTINSLQPEDFATYYCQQADSFPLTFGGGTKVEIK
B2: C5A (XPA23) VL N30H (antibody, V domains shown)
VH: EVQLLESGGGLVQPGGSLRLSCAASGFTFSKYFMFWVRQAPGKGLEWVSVISPSGGMTRYADSVKGRFTISRDNSKNTLYLQMNSLRAEDTAVYYCARVGYGGNSDYWGQGTLVTVSS
VL: DIQMTQSPSSVSASVGDRLTIICRASQDIHRWLAWYQQTPGNAPKLLIHSATSLQSGVPSRFSGSGSGTDFTLTINSLQPEDFATYYCQQADSFPLTFGGGTKVEIK
B3: C5A (XPA23) VL N30R (antibody, V domains shown)
VH: EVQLLESGGGLVQPGGSLRLSCAASGFTFSKYFMFWVRQAPGKGLEWVSVISPSGGMTRYADSVKGRFTISRDNSKNTLYLQMNSLRAEDTAVYYCARVGYGGNSDYWGQGTLVTVSS
VL: DIQMTQSPSSVSASVGDRLTIICRASQDIRRWLAWYQQTPGNAPKLLIHSATSLQSGVPSRFSGSGSGTDFTLTINSLQPEDFATYYCQQADSFPLTFGGGTKVEIK
B4: C5A (XPA23) VL N30Q (antibody, V domains shown)
VH: EVQLLESGGGLVQPGGSLRLSCAASGFTFSKYFMFWVRQAPGKGLEWVSVISPSGGMTRYADSVKGRFTISRDNSKNTLYLQMNSLRAEDTAVYYCARVGYGGNSDYWGQGTLVTVSS
VL: DIQMTQSPSSVSASVGDRLTIICRASQDIQRWLAWYQQTPGNAPKLLIHSATSLQSGVPSRFSGSGSGTDFTLTINSLQPEDFATYYCQQADSFPLTFGGGTKVEIK
B5: C5A (XPA23) VL N30K (antibody, V domains shown)
VH: EVQLLESGGGLVQPGGSLRLSCAASGFTFSKYFMFWVRQAPGKGLEWVSVISPSGGMTRYADSVKGRFTISRDNSKNTLYLQMNSLRAEDTAVYYCARVGYGGNSDYWGQGTLVTVSS
VL: DIQMTQSPSSVSASVGDRLTIICRASQDIKRWLAWYQQTPGNAPKLLIHSATSLQSGVPSRFSGSGSGTDFTLTINSLQPEDFATYYCQQADSFPLTFGGGTKVEIK
B6: C5A (XPA23) VL N30Y (antibody, V domains shown)
VH: EVQLLESGGGLVQPGGSLRLSCAASGFTFSKYFMFWVRQAPGKGLEWVSVISPSGGMTRYADSVKGRFTISRDNSKNTLYLQMNSLRAEDTAVYYCARVGYGGNSDYWGQGTLVTVSS
VL: DIQMTQSPSSVSASVGDRLTIICRASQDIYRWLAWYQQTPGNAPKLLIHSATSLQSGVPSRFSGSGSGTDFTLTINSLQPEDFATYYCQQADSFPLTFGGGTKVEIK
B7: C5A (XPA23) VL N30S (antibody, V domains shown)
VH: EVQLLESGGGLVQPGGSLRLSCAASGFTFSKYFMFWVRQAPGKGLEWVSVISPSGGMTRYADSVKGRFTISRDNSKNTLYLQMNSLRAEDTAVYYCARVGYGGNSDYWGQGTLVTVSS
VL: DIQMTQSPSSVSASVGDRLTIICRASQDISRWLAWYQQTPGNAPKLLIHSATSLQSGVPSRFSGSGSGTDFTLTINSLQPEDFATYYCQQADSFPLTFGGGTKVEIK
B8: C5A (XPA23) VL R31N (antibody, V domains shown)
VH: EVQLLESGGGLVQPGGSLRLSCAASGFTFSKYFMFWVRQAPGKGLEWVSVISPSGGMTRYADSVKGRFTISRDNSKNTLYLQMNSLRAEDTAVYYCARVGYGGNSDYWGQGTLVTVSS
VL: DIQMTQSPSSVSASVGDRLTIICRASQDINNWLAWYQQTPGNAPKLLIHSATSLQSGVPSRFSGSGSGTDFTLTINSLQPEDFATYYCQQADSFPLTFGGGTKVEIK
B9: C5A (XPA23) VL H49D (antibody, V domains shown)
VH: EVQLLESGGGLVQPGGSLRLSCAASGFTFSKYFMFWVRQAPGKGLEWVSVISPSGGMTRYADSVKGRFTISRDNSKNTLYLQMNSLRAEDTAVYYCARVGYGGNSDYWGQGTLVTVSS
VL: DIQMTQSPSSVSASVGDRLTIICRASQDINRWLAWYQQTPGNAPKLLIDSATSLQSGVPSRFSGSGSGTDFTLTINSLQPEDFATYYCQQADSFPLTFGGGTKVEIK
B10: C5A (XPA23) VL R31D (antibody, V domains shown)
VH: EVQLLESGGGLVQPGGSLRLSCAASGFTFSKYFMFWVRQAPGKGLEWVSVISPSGGMTRYADSVKGRFTISRDNSKNTLYLQMNSLRAEDTAVYYCARVGYGGNSDYWGQGTLVTVSS
VL: DIQMTQSPSSVSASVGDRLTIICRASQDINDWLAWYQQTPGNAPKLLIHSATSLQSGVPSRFSGSGSGTDFTLTINSLQPEDFATYYCQQADSFPLTFGGGTKVEIK
B11: C5A (XPA23) VL S50E (antibody, V domains shown)
VH: EVQLLESGGGLVQPGGSLRLSCAASGFTFSKYFMFWVRQAPGKGLEWVSVISPSGGMTRYADSVKGRFTISRDNSKNTLYLQMNSLRAEDTAVYYCARVGYGGNSDYWGQGTLVTVSS
VL: DIQMTQSPSSVSASVGDRLTIICRASQDINRWLAWYQQTPGNAPKLLIHEATSLQSGVPSRFSGSGSGTDFTLTINSLQPEDFATYYCQQADSFPLTFGGGTKVEIK
B12: C5A (XPA23) VL H49Y (antibody, V domains shown)
VH: EVQLLESGGGLVQPGGSLRLSCAASGFTFSKYFMFWVRQAPGKGLEWVSVISPSGGMTRYADSVKGRFTISRDNSKNTLYLQMNSLRAEDTAVYYCARVGYGGNSDYWGQGTLVTVSS
VL: DIQMTQSPSSVSASVGDRLTIICRASQDINRWLAWYQQTPGNAPKLLIYSATSLQSGVPSRFSGSGSGTDFTLTINSLQPEDFATYYCQQADSFPLTFGGGTKVEIK
B13: C5A (XPA23) VL H49R (antibody, V domains shown)
VH: EVQLLESGGGLVQPGGSLRLSCAASGFTFSKYFMFWVRQAPGKGLEWVSVISPSGGMTRYADSVKGRFTISRDNSKNTLYLQMNSLRAEDTAVYYCARVGYGGNSDYWGQGTLVTVSS
VL: DIQMTQSPSSVSASVGDRLTIICRASQDINRWLAWYQQTPGNAPKLLIRSATSLQSGVPSRFSGSGSGTDFTLTINSLQPEDFATYYCQQADSFPLTFGGGTKVEIK
B14: C5A (XPA23) VL R31Q (antibody, V domains shown)
VH: EVQLLESGGGLVQPGGSLRLSCAASGFTFSKYFMFWVRQAPGKGLEWVSVISPSGGMTRYADSVKGRFTISRDNSKNTLYLQMNSLRAEDTAVYYCARVGYGGNSDYWGQGTLVTVSS
VL: DIQMTQSPSSVSASVGDRLTIICRASQDINQWLAWYQQTPGNAPKLLIHSATSLQSGVPSRFSGSGSGTDFTLTINSLQPEDFATYYCQQADSFPLTFGGGTKVEIK
B15: C5A (XPA23) VL R31S (antibody, V domains shown)
VH: EVQLLESGGGLVQPGGSLRLSCAASGFTFSKYFMFWVRQAPGKGLEWVSVISPSGGMTRYADSVKGRFTISRDNSKNTLYLQMNSLRAEDTAVYYCARVGYGGNSDYWGQGTLVTVSS
VL: DIQMTQSPSSVSASVGDRLTIICRASQDINSWLAWYQQTPGNAPKLLIHSATSLQSGVPSRFSGSGSGTDFTLTINSLQPEDFATYYCQQADSFPLTFGGGTKVEIK
B16: C5A (XPA23) VL R31T (antibody, V domains shown)
VH: EVQLLESGGGLVQPGGSLRLSCAASGFTFSKYFMFWVRQAPGKGLEWVSVISPSGGMTRYADSVKGRFTISRDNSKNTLYLQMNSLRAEDTAVYYCARVGYGGNSDYWGQGTLVTVSS
VL: DIQMTQSPSSVSASVGDRLTIICRASQDINTWLAWYQQTPGNAPKLLIHSATSLQSGVPSRFSGSGSGTDFTLTINSLQPEDFATYYCQQADSFPLTFGGGTKVEIK
B17: C5A (XPA23) VL N30T (antibody, V domains shown)
VH: EVQLLESGGGLVQPGGSLRLSCAASGFTFSKYFMFWVRQAPGKGLEWVSVISPSGGMTRYADSVKGRFTISRDNSKNTLYLQMNSLRAEDTAVYYCARVGYGGNSDYWGQGTLVTVSS
VL: DIQMTQSPSSVSASVGDRLTIICRASQDITRWLAWYQQTPGNAPKLLIHSATSLQSGVPSRFSGSGSGTDFTLTINSLQPEDFATYYCQQADSFPLTFGGGTKVEIK
B18: C5A (XPA23) VL H49N (antibody, V domains shown)
VH: EVQLLESGGGLVQPGGSLRLSCAASGFTFSKYFMFWVRQAPGKGLEWVSVISPSGGMTRYADSVKGRFTISRDNSKNTLYLQMNSLRAEDTAVYYCARVGYGGNSDYWGQGTLVTVSS
VL: DIQMTQSPSSVSASVGDRLTIICRASQDINRWLAWYQQTPGNAPKLLINSATSLQSGVPSRFSGSGSGTDFTLTINSLQPEDFATYYCQQADSFPLTFGGGTKVEIK
B19: C5A (XPA23) VL S50K (antibody, V domains shown)
VH: EVQLLESGGGLVQPGGSLRLSCAASGFTFSKYFMFWVRQAPGKGLEWVSVISPSGGMTRYADSVKGRFTISRDNSKNTLYLQMNSLRAEDTAVYYCARVGYGGNSDYWGQGTLVTVSS
VL: DIQMTQSPSSVSASVGDRLTIICRASQDINRWLAWYQQTPGNAPKLLIHKATSLQSGVPSRFSGSGSGTDFTLTINSLQPEDFATYYCQQADSFPLTFGGGTKVEIK
B20: C5A (XPA23) VL H49K (antibody, V domains shown)
VH: EVQLLESGGGLVQPGGSLRLSCAASGFTFSKYFMFWVRQAPGKGLEWVSVISPSGGMTRYADSVKGRFTISRDNSKNTLYLQMNSLRAEDTAVYYCARVGYGGNSDYWGQGTLVTVSS
VL: DIQMTQSPSSVSASVGDRLTIICRASQDINRWLAWYQQTPGNAPKLLIKSATSLQSGVPSRFSGSGSGTDFTLTINSLQPEDFATYYCQQADSFPLTFGGGTKVEIK
B21: C5A (XPA23) VL H49S (antibody, V domains shown)
VH: EVQLLESGGGLVQPGGSLRLSCAASGFTFSKYFMFWVRQAPGKGLEWVSVISPSGGMTRYADSVKGRFTISRDNSKNTLYLQMNSLRAEDTAVYYCARVGYGGNSDYWGQGTLVTVSS
VL: DIQMTQSPSSVSASVGDRLTIICRASQDINRWLAWYQQTPGNAPKLLISSATSLQSGVPSRFSGSGSGTDFTLTINSLQPEDFATYYCQQADSFPLTFGGGTKVEIK
B22: C5A (XPA23) VL R31K (antibody, V domains shown)
VH: EVQLLESGGGLVQPGGSLRLSCAASGFTFSKYFMFWVRQAPGKGLEWVSVISPSGGMTRYADSVKGRFTISRDNSKNTLYLQMNSLRAEDTAVYYCARVGYGGNSDYWGQGTLVTVSS
VL: DIQMTQSPSSVSASVGDRLTIICRASQDINKWLAWYQQTPGNAPKLLIHSATSLQSGVPSRFSGSGSGTDFTLTINSLQPEDFATYYCQQADSFPLTFGGGTKVEIK

Molecular target: binding partner of C5A (XPA23)
Assay: Biacore K-off

Binder | fold difference in affinity vs original [fold]
B1 | 0.64
B2 | 1
B3 | 0.74
B4 | 0.6
B5 | 0.61
B6 | 1.4
B7 | 0.72
B8 | 0.38
B9 | 0.11
B10 | 11.1
B11 | 0.02
B12 | 0.52
B13 | 0.21
B14 | 0.27
B15 | 0.44
B16 | 0.24
B17 | 0.97
B18 | 0.31
B19 | 0.1
B20 | 0.1
B21 | 0.14
B22 | 1.18
